From patent US20190240316A1 (published 2019)

B1: 14N4 (antibody, V domains shown)
VH: QVQLVESGGGLIQPGGSLRLSCAVSGFTVSSKYMTWVRQAPGKGLEWVSVIYGGGSTYYADSVVGRFTISRDNSKNTLYLQMNSLRAEDTAVYYCASRLGVRATTGDLDYWGQGTLVTVSS
VL: QIVMTQSPSTLSASVGDRVTITCRASQSISSWLAWYQQKPGKAPKLLIYDASSLESGVPSRFSGSGSGTEFTLTISSLQPDDFATYYCQQYNTYSWWTFGQGTKVEIK
B2: 3J20 (antibody, V domains shown)
VH: EVQLVESGGGLVQPGGSLRLSCAASGFTFSSFTMNWVRQAPGKGLQWVSTISGSGGLTYYADSVKGRFTISRDNSKNTLSLQMNSLRAEDTAVYYCARDLEFTVTSYGGYYFEYWGQGTLVTVSS
VL: not shown
B3: Motavizumab (antibody, V domains shown)
VH: QVTLRESGPALVKPTQTLTLTCTFSGFSLSTAGMSVGWIRQPPGKALEWLADIWWDDKKHYNPSLKDRLTISKDTSKNQVVLKVTNMDPADTATYYCARDMIFNFYFDVWGQGTTVTVSS
VL: DIQMTQSPSTLSASVGDRVTITCSASSRVGYMHWYQQKPGKAPKLLIYDTSKLASGVPSRFSGSGSGTEFTLTISSLQPDDFATYYCFQGSGYPFTFGGGTKVEIK
B4: 13A8 (antibody, V domains shown)
VH: QVQLVESGGGVVQPGKSLRLSCAASGYIFSSYDMHWVRQAPGKGLEWVAVISFDGTTQHYADSVRGRFTVSRDNSQNTVFLQMNSLRPEDTAVYYCVKEYVIVSTFFDYWGQGTLVTVSS
VL: DIVMTQSPSSLSASVGDRVTITCRASQGIRNALGWYQHKPGKAPKVLIYAASRLQSGVPSRFSGSGSGTDFTLTISSLQPEDFATYYCLQDFNYPWTFGHGTKVEIK
B5: 13A8 (Fab, V domains shown)
VH: QVQLVESGGGVVQPGKSLRLSCAASGYIFSSYDMHWVRQAPGKGLEWVAVISFDGTTQHYADSVRGRFTVSRDNSQNTVFLQMNSLRPEDTAVYYCVKEYVIVSTFFDYWGQGTLVTVSS
VL: DIVMTQSPSSLSASVGDRVTITCRASQGIRNALGWYQHKPGKAPKVLIYAASRLQSGVPSRFSGSGSGTDFTLTISSLQPEDFATYYCLQDFNYPWTFGHGTKVEIK
B6: Palivizumab (antibody, V domains shown)
VH: QVTLRESGPALVKPTQTLTLTCTFSGFSLSTSGMSVGWIRQPPGKALEWLADIWWDDKKDYNPSLKSRLTISKDTSKNQVVLKVTNMDPADTATYYCARSMITNWYFDVWGAGTTVTVSS
VL: DIQMTQSPSTLSASVGDRVTITCKCQLSVGYMHWYQQKPGKAPKLLIYDTSKLASGVPSRFSGSGSGTEFTLTISSLQPDDFATYYCFQGSGYPFTFGGGTKLEIK
B7: 14N4 (Fab, V domains shown)
VH: QVQLVESGGGLIQPGGSLRLSCAVSGFTVSSKYMTWVRQAPGKGLEWVSVIYGGGSTYYADSVVGRFTISRDNSKNTLYLQMNSLRAEDTAVYYCASRLGVRATTGDLDYWGQGTLVTVSS
VL: QIVMTQSPSTLSASVGDRVTITCRASQSISSWLAWYQQKPGKAPKLLIYDASSLESGVPSRFSGSGSGTEFTLTISSLQPDDFATYYCQQYNTYSWWTFGQGTKVEIK
B8: 3J20 (Fab, V domains shown)
VH: EVQLVESGGGLVQPGGSLRLSCAASGFTFSSFTMNWVRQAPGKGLQWVSTISGSGGLTYYADSVKGRFTISRDNSKNTLSLQMNSLRAEDTAVYYCARDLEFTVTSYGGYYFEYWGQGTLVTVSS
VL: not shown

What was measured:
FFL_001 [1] = test: ELISA; printed as ng/uL
RPM = test: ELISA; printed as ng/uL
FFL_001 [2] = test: SPR

Row | Binder | EC50 (FFL_001 [1]) | EC50 (RPM) | Kd (FFL_001 [2])
1 | B1 | 19.3 µg/mL | 7.4 µg/mL | –
2 | B2 | 11.1 µg/mL | 12.7 µg/mL | –
3 | B3 | 10.4 µg/mL | 16.7 µg/mL | –
4 | B4 | 17.9 µg/mL | 14.8 µg/mL | –
5 | B5 | – | – | 0.2 nM
6 | B6 | 49 µg/mL | 26.1 µg/mL | –
7 | B7 | – | – | 1.37 nM
8 | B8 | – | – | 1.05 nM
